{
  "source": "paper PMC8741639",
  "about": "(Structure (London, England : 1993), 2021)",
  "biological_target": "the molecule itself",
  "experiment": "cryo-EM structure",
  "data": [
    {"protein": "AcrA, periplasmic membrane fusion protein of the AcrAB-TolC efflux pump (natural protein) CDDKQAQQGGQQMPAVGVVTVKTEPLQITTELPGRTSAYRIAEVRPQVSGIILKRNFKEGSDIEAGVSLYQIDPATYQATYDSAKGDLAKAQAAANIAQLTVNRYQKLLGTQYISKQEYDQALADAQQANAAVTAAKAAVETARINLAYTKVTSPISGRIGKSNVTEGALVQNGQATALATVQQLDPIYVDVTQSSNDFLRLKQELANGTLKQENGKAKVSLITSDGIKFPQDGTLEFSDVTVDQTTGSITLRAIFPNPDHTLLPGMFVRARLEEGLNPNAILVPQQGVTRTPRGDATVLVVGADDKVETRPIVASQAIGDKWLVTEGLKAGDRVVISGLQKVRPGVQVKAQEVTADNNQQAASGAQPEQSKS", "values": [
      {"measurement": "stoichiometry N", "value": 6}
    ]}
  ]
}
